Test results reported in the supplement of paper PMC10065799, “High-throughput profiling of sequence recognition by tyrosine kinases and SH2 domains using bacterial peptide display” (eLife, 2023).

Experiments:
c-Src = assay: phosphorylation enrichment, bacterial display (enrichment ratio); higher = better substrate or ligand; peptides without Tyr show the background
Fyn = Fyn (UniProt P06241); assay: as above
FGFR1 = FGFR1 (UniProt P11362); assay: as above
Fer (mouse) = assay: as above
MERTK = MERTK (UniProt Q12866); assay: as above
Jak2 = Jak2 (UniProt O60674); assay: as above
EPHB2 = EPHB2 (UniProt P29323); assay: as above
AncSZ = assay: as above
Fes = Fes (UniProt P07332); assay: as above
c-Abl (mouse) = assay: as above
FGFR3 = FGFR3 (UniProt P22607); assay: as above
EPHB1 = EPHB1 (UniProt P54762); assay: as above
Hck = Hck (UniProt P08631); assay: as above
c-Src SH2 = assay: SH2 binding enrichment of the phosphorylated peptide, bacterial display (enrichment ratio); higher = better substrate or ligand; peptides without Tyr show the background
Grb2 SH2 = Grb2 SH2 (UniProt P62993); assay: as above
SHP2-C SH2 = assay: as above
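For SH2 binding enrichment of the phosphorylated peptide, bacterial display in this document: peptide library displayed on the E. coli surface as eCPX fusions, selected cells deep-sequenced, score is each peptide's frequency after selection divided by its frequency in the input.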
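For phosphorylation enrichment, bacterial display in this document: 11-residue human phosphosite peptides and single-mutation variants displayed on the E. coli surface, counted by deep sequencing, each peptide's frequency after selection divided by its frequency in the unselected input library; frequency after pTyr selection over input frequency; kinase dosed for 20-30% of maximal phosphorylation in three min.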

Chain of Fyn (P06241 whole entry, looked up): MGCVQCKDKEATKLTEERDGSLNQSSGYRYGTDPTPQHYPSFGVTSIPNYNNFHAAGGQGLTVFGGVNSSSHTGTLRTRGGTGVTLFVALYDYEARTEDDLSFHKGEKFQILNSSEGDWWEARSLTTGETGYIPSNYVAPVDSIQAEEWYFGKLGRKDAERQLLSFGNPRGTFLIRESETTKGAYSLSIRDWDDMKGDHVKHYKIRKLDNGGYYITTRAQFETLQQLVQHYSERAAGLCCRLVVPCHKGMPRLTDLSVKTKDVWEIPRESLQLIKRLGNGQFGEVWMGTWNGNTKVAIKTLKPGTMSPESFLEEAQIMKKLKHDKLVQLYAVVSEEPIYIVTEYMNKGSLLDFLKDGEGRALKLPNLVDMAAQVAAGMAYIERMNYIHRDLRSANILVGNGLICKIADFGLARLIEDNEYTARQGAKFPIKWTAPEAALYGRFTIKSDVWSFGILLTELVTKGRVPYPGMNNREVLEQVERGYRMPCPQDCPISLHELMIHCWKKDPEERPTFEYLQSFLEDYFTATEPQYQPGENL
Chain of Jak2 (O60674 whole entry, looked up): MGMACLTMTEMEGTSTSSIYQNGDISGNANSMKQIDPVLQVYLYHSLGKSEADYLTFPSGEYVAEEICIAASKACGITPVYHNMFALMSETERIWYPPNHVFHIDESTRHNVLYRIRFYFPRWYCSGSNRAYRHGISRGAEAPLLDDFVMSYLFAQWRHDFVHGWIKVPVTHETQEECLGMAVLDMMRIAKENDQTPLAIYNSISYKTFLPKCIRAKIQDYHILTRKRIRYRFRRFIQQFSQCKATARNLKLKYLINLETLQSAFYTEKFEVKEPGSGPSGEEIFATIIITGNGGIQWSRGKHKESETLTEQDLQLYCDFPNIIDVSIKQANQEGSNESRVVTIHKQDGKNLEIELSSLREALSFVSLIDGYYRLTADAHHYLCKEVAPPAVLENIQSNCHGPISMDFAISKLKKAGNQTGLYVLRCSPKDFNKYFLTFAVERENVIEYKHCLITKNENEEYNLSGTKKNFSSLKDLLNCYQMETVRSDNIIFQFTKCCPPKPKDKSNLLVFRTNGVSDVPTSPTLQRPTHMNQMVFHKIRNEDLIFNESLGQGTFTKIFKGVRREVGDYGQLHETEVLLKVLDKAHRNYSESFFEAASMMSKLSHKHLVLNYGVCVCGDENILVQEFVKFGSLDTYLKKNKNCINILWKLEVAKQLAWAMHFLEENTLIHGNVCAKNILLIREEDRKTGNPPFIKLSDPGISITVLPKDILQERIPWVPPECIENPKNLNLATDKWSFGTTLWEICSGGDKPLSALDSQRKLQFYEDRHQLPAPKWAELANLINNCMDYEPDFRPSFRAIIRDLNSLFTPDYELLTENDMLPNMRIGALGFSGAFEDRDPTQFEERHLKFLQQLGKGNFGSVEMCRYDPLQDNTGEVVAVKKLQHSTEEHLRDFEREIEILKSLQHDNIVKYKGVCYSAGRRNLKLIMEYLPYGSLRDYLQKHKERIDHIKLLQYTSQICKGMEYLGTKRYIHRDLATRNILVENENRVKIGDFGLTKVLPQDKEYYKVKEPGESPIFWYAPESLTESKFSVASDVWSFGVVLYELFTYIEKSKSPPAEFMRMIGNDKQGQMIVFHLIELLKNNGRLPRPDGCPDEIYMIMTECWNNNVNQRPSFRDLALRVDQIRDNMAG
Chain of EPHB1 (P54762 whole entry, looked up): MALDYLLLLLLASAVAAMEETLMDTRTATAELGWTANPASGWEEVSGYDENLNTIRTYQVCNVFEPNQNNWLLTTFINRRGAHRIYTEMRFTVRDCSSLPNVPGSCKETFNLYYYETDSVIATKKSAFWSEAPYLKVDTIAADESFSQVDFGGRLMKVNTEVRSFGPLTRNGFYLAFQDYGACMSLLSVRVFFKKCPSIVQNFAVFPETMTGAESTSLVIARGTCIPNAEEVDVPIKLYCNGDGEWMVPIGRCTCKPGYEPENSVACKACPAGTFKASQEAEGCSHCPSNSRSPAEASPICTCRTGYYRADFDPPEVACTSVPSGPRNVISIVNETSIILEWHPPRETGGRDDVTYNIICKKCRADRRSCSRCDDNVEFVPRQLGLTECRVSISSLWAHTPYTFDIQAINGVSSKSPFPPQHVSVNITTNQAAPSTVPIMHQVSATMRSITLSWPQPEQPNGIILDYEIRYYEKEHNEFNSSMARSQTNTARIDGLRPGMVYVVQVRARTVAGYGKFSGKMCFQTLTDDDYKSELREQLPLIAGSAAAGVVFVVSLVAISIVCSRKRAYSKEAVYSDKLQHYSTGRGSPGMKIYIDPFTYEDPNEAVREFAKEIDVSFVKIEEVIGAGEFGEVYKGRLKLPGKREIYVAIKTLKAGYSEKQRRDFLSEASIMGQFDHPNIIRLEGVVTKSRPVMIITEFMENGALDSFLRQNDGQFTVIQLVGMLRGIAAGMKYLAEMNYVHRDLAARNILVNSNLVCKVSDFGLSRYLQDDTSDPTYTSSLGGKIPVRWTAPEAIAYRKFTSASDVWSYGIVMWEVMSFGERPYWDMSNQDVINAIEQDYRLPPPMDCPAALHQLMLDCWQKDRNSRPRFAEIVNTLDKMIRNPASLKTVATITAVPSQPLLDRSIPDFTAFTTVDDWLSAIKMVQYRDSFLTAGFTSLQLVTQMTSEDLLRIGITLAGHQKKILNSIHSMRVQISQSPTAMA
Chain of FGFR1 (P11362 whole entry, looked up): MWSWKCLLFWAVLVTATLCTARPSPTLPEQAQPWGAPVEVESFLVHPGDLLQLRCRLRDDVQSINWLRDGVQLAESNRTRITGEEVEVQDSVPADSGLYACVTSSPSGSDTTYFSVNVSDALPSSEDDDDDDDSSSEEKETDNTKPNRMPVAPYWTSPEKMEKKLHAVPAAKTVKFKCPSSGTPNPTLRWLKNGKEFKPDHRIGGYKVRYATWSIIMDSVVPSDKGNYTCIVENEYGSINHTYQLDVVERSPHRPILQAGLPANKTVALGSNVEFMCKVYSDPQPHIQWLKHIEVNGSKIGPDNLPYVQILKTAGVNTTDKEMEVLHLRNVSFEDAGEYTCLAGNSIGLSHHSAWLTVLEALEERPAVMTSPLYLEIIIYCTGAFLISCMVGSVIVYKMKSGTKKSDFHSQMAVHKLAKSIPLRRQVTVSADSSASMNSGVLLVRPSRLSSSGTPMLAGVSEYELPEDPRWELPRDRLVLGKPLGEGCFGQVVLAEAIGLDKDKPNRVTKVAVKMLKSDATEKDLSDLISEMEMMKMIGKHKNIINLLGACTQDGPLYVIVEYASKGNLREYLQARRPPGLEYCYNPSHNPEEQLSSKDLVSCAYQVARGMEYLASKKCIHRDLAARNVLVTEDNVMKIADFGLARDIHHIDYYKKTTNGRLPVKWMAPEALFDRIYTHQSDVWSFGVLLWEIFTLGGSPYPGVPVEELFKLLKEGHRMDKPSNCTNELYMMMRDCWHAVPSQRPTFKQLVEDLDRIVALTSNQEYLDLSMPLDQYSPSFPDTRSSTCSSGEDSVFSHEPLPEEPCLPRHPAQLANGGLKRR
Chain of EPHB2 (P29323 whole entry, looked up): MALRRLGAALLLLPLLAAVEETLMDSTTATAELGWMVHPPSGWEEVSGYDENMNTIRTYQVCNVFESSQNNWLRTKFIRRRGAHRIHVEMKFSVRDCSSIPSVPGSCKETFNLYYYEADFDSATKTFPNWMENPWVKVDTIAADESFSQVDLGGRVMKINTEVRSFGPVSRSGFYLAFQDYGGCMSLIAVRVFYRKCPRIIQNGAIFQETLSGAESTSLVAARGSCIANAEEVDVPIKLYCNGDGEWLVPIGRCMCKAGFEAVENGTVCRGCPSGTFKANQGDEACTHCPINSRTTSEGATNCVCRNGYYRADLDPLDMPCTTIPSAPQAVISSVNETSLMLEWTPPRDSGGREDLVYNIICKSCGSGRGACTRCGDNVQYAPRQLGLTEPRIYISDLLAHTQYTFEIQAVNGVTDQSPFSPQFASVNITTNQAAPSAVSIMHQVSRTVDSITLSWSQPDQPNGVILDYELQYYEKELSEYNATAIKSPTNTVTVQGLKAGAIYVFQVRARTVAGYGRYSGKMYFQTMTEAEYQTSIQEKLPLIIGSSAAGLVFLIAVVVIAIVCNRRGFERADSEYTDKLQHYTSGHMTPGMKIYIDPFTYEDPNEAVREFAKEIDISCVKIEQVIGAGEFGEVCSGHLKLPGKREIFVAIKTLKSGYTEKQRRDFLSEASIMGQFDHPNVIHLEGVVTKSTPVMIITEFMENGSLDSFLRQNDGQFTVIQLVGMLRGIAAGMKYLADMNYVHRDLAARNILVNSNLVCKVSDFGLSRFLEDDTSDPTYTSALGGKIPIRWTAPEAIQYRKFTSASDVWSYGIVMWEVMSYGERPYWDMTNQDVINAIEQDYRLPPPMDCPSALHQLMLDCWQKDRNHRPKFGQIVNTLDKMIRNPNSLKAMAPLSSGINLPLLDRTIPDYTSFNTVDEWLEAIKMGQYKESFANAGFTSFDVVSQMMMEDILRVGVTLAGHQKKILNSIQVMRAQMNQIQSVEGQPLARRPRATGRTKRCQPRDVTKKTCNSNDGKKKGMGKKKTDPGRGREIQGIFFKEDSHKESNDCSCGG
Chain of Hck (P08631 whole entry, looked up): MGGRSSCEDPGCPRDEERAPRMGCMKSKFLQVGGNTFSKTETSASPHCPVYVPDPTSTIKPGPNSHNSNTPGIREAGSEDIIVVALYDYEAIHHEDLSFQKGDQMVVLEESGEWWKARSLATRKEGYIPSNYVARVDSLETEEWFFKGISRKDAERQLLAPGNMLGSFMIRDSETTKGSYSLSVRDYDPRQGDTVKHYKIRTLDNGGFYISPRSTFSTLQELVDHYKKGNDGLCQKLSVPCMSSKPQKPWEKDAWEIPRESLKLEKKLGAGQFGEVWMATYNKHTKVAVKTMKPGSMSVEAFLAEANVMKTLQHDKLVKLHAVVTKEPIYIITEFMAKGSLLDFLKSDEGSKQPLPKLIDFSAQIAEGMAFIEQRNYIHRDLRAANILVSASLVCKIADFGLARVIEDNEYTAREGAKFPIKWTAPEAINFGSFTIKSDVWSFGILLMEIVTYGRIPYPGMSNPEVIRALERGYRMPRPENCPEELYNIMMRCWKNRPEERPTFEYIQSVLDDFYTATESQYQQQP

SH2 binding enrichment (c-Src SH2)	SH2 binding enrichment (Grb2 SH2)	SH2 binding enrichment (SHP2-C SH2)	Sequence	phosphorylation enrichment (c-Src)	phosphorylation enrichment (Fyn)	phosphorylation enrichment (FGFR1)	phosphorylation enrichment (Fer (mouse))	phosphorylation enrichment (MERTK)	phosphorylation enrichment (Jak2)	phosphorylation enrichment (EPHB2)	phosphorylation enrichment (AncSZ)	phosphorylation enrichment (Fes)	phosphorylation enrichment (c-Abl (mouse))	phosphorylation enrichment (FGFR3)	phosphorylation enrichment (EPHB1)	phosphorylation enrichment (Hck)
1.71	1.21	1.51	MSSLPYMKMIF [SLC4A11_Y853]	0.813	0.421	0.753	1.05	0.566	1.65	0.541	0.946	1.03	0.732	0.706	0.474	0.692
0.55	0.711	0.488	MVIPNYSSRTE [UROC1_Y185]	0.446	0.406	0.406	0.435	0.425	0.486	0.462	0.535	0.642	0.438	0.416	0.477	0.329
0.392	0.713	0.636	NKEAIYSGFIR [SMCHD1_Y283_YF]	9.78	14.5	0.59	5.17	12.7	0.711	7.14	0.78	1.01	33.6	0.557	5.18	13.1
0.692	0.787	0.739	NPETCYQRLKK [TK2_Y190]	0.483	0.412	0.481	0.432	0.469	0.966	0.603	1.03	1.03	0.839	0.545	0.527	0.736
0.555	0.886	0.727	NQDRTYFESVR [SPEN_Y632_YF]	0.678	0.571	0.602	0.665	0.469	0.865	0.617	0.852	0.931	0.618	0.69	0.507	0.573
3.98	0.901	1.04	NQDRTYYERVR [SPEN_Y632_S635R]	0.896	0.606	0.457	0.511	0.452	0.499	0.467	0.617	0.639	0.525	0.486	0.411	2.31
0.522	0.735	0.612	NQELIYEGRRL [TBK1_Y354]	7.87	8.61	0.472	8.54	0.581	0.581	0.668	0.755	0.763	5	0.808	0.518	9.83
0.506	1.15	0.778	NRLNDYIFSFD [RARS1_Y516]	0.555	0.461	0.721	0.424	0.475	0.977	0.538	1.09	1.03	0.789	0.729	0.538	0.469
0.395	0.768	0.612	NSRFTCKLEVK [USH2A_Y3747_Y3747C_YF]	0.504	0.378	0.563	0.533	0.449	1.79	0.618	1.45	1.66	1.48	1	0.629	0.508
0.677	1.09	0.784	NTGGFYDLFGG [PTPN11_Y63_D61G_YF]	4.17	7.59	0.478	3.82	9.2	1.1	0.899	1.05	1.18	0.836	0.719	0.829	5.68
0.925	1.22	0.956	NTQRPHFKGGG [TYROBP_Y111_Y111H_YF]	0.448	0.286	0.318	0.293	0.353	0.553	0.632	0.447	0.735	1.01	0.443	0.378	0.407
2.41	0.971	0.722	NTYEKYLGEEY [TF_Y669]	1.03	0.974	0.472	0.523	0.382	0.99	0.74	1.12	1.06	0.935	0.756	0.601	0.688
3.29	1.29	0.724	PDDPSYSLVDD [PSTPIP2_Y323_N322S]	0.91	0.885	0.899	0.728	0.563	1.75	0.8	1.6	1.53	1.03	1.08	0.999	0.679
0.39	0.811	0.472	PECEWYKNGVK [TTN_Y2112]	0.555	0.692	0.821	0.719	0.532	1.32	1.05	1.55	1.96	1.31	1.19	0.759	0.73

The next lines start with the sequence.

Sequence	SH2 binding enrichment (c-Src SH2)	SH2 binding enrichment (Grb2 SH2)	SH2 binding enrichment (SHP2-C SH2)	phosphorylation enrichment (c-Src)	phosphorylation enrichment (Fyn)	phosphorylation enrichment (FGFR1)	phosphorylation enrichment (Fer (mouse))	phosphorylation enrichment (MERTK)	phosphorylation enrichment (Jak2)	phosphorylation enrichment (EPHB2)	phosphorylation enrichment (AncSZ)	phosphorylation enrichment (Fes)	phosphorylation enrichment (c-Abl (mouse))	phosphorylation enrichment (FGFR3)	phosphorylation enrichment (EPHB1)	phosphorylation enrichment (Hck)
MPPHICAITDT [MYH9_Y151_Y151C]	0.657	1.1	0.706	0.529	0.51	0.578	0.631	0.473	0.981	0.53	0.809	1.1	1.34	0.685	0.628	0.538
MSRDVYSTDCY [NTRK2_Y702_Y706C]	0.932	1.15	0.719	2.32	2.1	0.726	0.631	1.51	1.06	0.701	0.993	1.14	0.993	0.766	0.718	0.972
NFADPYRQLQF [CTNND2_Y503_YF]	0.555	0.878	1.04	0.563	0.473	0.516	0.436	0.454	0.667	0.502	0.765	0.826	0.654	0.557	0.494	0.539
NIKKEYAKMVQ [PMS2_Y181]	0.623	0.824	0.791	0.312	0.335	0.358	0.294	0.392	0.436	0.413	0.549	0.615	0.422	0.39	0.345	0.451
NKYTTYLPWLP [C9orf24_Y126_R129W]	0.739	1.14	1.01	4.72	6.75	2.77	9.65	3.37	2.34	12.8	1.08	0.944	1.94	2.25	6.9	8.09
NLMPAYFKCIQ [CYP21A2_Y190_YF]	0.494	0.904	0.639	0.526	0.546	0.617	0.768	0.539	1.61	0.707	1.4	1.6	1.09	1.01	0.74	0.61
NNHGNYIVLLG [ETFDH_Y172_R175L]	0.587	0.983	1.14	0.522	0.458	2.81	0.363	1.66	0.833	3.86	0.979	0.902	0.644	1.71	7.55	0.433
NNIDYYKKTTN [FGFR2_Y657]	0.459	1.02	0.603	0.492	0.633	0.456	0.6	0.437	0.524	0.527	0.616	0.703	0.517	0.495	0.543	0.764
NTFEKYWLFFQ [GATM_Y103_P105L_YF]	0.758	0.975	0.886	0.538	0.501	0.761	0.478	0.544	1.2	0.682	1.29	1.44	1	1	0.721	0.68
NTGLDYIKFTW [HRH1_Y386]	0.475	0.892	0.811	0.612	0.39	1.64	0.402	0.605	1.92	0.742	1.37	1.31	0.902	1.26	0.647	0.495
NTGLEYIKFTW [HRH1_Y386_D385E]	0.614	1.11	0.778	0.495	0.531	0.76	0.449	0.474	1.37	0.633	1.16	1.09	0.657	0.851	0.572	0.58
NTYEKYWLFYQ [GATM_Y103_P105L]	0.807	0.788	1.12	2.23	1.5	1.7	0.874	1.78	1.18	2.94	1.26	1.39	0.8	1.65	4.77	1.36
NVFGNYNQQPS [HNRNPA2B1_Y306_D302V]	0.584	0.822	0.682	0.384	0.401	0.356	0.315	0.375	0.687	0.375	0.492	0.713	0.674	0.471	0.468	0.484
PARLEYFENEK [IRS1_Y46_YF]	0.647	0.834	0.817	0.684	0.471	1.03	0.661	0.784	2	0.777	1.35	1.61	0.999	0.957	0.714	0.709
PCLLRYLQLDF [ASB10_Y457_R453C]	1.26	1.12	1.26	0.502	0.497	1.18	0.968	0.733	1.51	0.538	1.5	1.72	1.12	1.14	0.833	0.783
PDSVDYRKKGF [CTSK_Y121_YF]	0.625	0.755	0.638	0.366	0.32	0.402	0.521	0.368	0.49	0.646	0.524	0.536	0.391	0.88	0.468	0.55
PESCLYKESWI [IQGAP2_Y630_L635I]	0.532	0.827	0.315	0.825	0.493	1.25	1.26	0.6	1.54	1.2	1.18	1.97	1.48	1.17	0.931	0.872
PHQTIYSALMI [FGF23_Y70]	0.495	0.68	0.598	10.4	12.7	1.88	20.3	13.1	1.7	4.45	1.26	3.94	20.6	1.61	5.93	12.8
PHRSIYFSSPK [MPG_Y75_Y71H]	0.46	1.01	0.609	0.786	0.982	0.803	0.663	0.687	0.584	0.61	0.498	0.859	0.862	0.927	0.674	1.48
